# Measured values from article PMC7139925, “Tuning the Polymorphism of the Anti-VEGF G-rich V7t1 Aptamer by Covalent Dimeric Constructs”.
# Target: VEGF165 (UniProt P15692-4 27-191)
# Experiment: EMSA; annealed; HEPES/Na+; 1:1.3; almost fully bound; 25 mM HEPES, 150 mM NaCl, pH 7.4; 30 pmol oligo + 40 pmol protein in 9 uL, 30 min at 4 C; 7% native PAGE in TAE 1X pH 7.8 at r.t.
# Conditions: protein: recombinant; chain copies: 2; G4; 2 copies of strand covalently linked 3'-3'
# Sequence of VEGF165 (P15692 other isoform, or with tags, fused parts or gaps): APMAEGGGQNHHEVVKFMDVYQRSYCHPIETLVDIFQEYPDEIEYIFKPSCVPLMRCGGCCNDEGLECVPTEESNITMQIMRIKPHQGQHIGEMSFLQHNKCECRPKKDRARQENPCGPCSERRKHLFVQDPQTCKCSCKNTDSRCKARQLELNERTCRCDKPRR
binder,measurement,value
"TGTGGGGGTGGACGGGCCGGGTAGA (structured_DNA, two V7t1 copies joined 3' to 3' by TEG/symmetric doubler linker (C25H53N2O24P5), inverted polarity) [bisV7t1TEG2D]",binding result,binds
